Laboratory results from patent publication CN1886424A (dated 2006).

B1: EM164抗体的Fab片段 (Fab fragment of EM164, papain digest) (Fab, V domains shown)
VH: QVQLQQSGAELVKPGASVKLSCKASGYTFTSYWMHWVKQRPGQGLEWIGEINPSNGRTNYNEKFKRKATLTVDKSSSTAYMQLSSLTSEDSAVYYFARGRPDYYGSSKWYFDVWGAGTTVTVSS
VL: DVLMTQTPLSLPVSLGDQASISCRSSQSIVHSNVNTYLEWYLQKPGQSPKLLIYKVSNRFSGVPDRFSGSGSGTDFTLRISRVEAEDLGIYYCFQGSHVPPTFGGGTKLEIKR
notes: also called EM164 Fab
B2: 鼠抗IGF-I受体抗体EM164 (murine anti-IGF-I receptor antibody EM164) (antibody, V domains shown)
VH: B1 VH
VL: B1 VL
notes: Purified from hybridoma; also called EM164抗体; muEM164

Legend:
[1] = target: T1, 纯化的/生物素化的全长人IGF-I受体 (purified, biotinylated full-length human IGF-I receptor) (human, UniProt P08069 31-1367, biotinylated with PEO-maleimide-biotin (Kd and competition ELISAs); unmodified when coated directly); test: ELISA titration of the Fab on human IGF-I receptor
T1 construct: mature; also called 生物素化的IGF-I受体; 纯化的人IGF-I受体
T1 sequence (P08069 31-1367 limits assumed): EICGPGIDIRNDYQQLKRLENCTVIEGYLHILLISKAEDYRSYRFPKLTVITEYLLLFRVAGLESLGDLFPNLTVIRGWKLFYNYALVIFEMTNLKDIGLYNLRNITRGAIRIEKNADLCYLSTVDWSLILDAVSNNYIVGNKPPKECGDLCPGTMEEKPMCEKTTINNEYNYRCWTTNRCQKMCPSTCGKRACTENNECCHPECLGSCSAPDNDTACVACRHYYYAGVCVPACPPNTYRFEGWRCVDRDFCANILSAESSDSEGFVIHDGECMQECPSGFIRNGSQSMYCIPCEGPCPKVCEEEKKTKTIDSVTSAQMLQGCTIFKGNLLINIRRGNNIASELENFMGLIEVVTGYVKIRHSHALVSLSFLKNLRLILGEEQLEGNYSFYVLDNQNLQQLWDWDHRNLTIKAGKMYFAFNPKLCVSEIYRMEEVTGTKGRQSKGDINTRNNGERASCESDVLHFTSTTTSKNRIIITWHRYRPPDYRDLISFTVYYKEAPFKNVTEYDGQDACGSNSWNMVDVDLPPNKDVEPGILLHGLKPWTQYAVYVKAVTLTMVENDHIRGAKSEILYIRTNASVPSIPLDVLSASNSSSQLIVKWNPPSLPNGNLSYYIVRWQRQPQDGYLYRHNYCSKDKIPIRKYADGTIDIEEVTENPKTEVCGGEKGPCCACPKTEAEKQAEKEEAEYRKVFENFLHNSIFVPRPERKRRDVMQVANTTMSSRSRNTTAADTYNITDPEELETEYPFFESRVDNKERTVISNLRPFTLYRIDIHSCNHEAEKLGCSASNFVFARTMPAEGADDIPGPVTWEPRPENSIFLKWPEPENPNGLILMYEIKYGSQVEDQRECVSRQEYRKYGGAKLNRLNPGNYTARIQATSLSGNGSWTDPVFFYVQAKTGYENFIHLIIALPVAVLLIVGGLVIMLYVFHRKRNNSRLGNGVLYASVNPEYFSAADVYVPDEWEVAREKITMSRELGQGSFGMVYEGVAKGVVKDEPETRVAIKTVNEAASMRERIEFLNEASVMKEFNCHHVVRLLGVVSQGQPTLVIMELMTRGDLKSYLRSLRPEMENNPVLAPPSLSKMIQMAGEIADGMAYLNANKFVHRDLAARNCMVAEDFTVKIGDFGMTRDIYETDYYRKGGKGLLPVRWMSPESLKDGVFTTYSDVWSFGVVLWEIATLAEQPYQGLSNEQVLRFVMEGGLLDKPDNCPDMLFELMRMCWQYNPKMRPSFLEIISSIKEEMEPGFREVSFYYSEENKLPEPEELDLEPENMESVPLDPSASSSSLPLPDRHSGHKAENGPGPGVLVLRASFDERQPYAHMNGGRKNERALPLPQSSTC

[2] = target: 人肿瘤细胞上的人IGF-I受体 (endogenous human IGF-I receptor of human tumour cells: MCF-7, NCI-H838, SaOS-2 and others) (human) (UniProt P08069); test: cell-based or functional assay
[3] = target: 人肿瘤细胞上的人IGF-I受体 (endogenous human IGF-I receptor of human tumour cells: MCF-7, NCI-H838, SaOS-2 and others) (human) (UniProt P08069); test: displacement of biotin-IGF-I from MCF-7 cells at 4℃, 2 h; capture ELISA
[4] = target: 过量表达于3T3样细胞上的人Y1251F IGF-I受体 (human IGF-I receptor with Y1251F mutation on 3T3-like cells) (human) (UniProt P08069); test: cell ELISA on dried cells overexpressing human Y1251F IGF-I receptor, 12 min colour development
[5] = target: 人肿瘤细胞上的人IGF-I受体 (endogenous human IGF-I receptor of human tumour cells: MCF-7, NCI-H838, SaOS-2 and others) (human) (UniProt P08069); test: displacement of biotin-IGF-I from MCF-7 cells at 37℃, 30 min, 10-100 μg/mL antibody; capture ELISA
[6] = target: T1, 纯化的/生物素化的全长人IGF-I受体 (purified, …); test: ELISA titration on biotinylated human IGF-I receptor captured on streptavidin, one-site non-linear regression

Binder | Kd [1] | MCF-7 cell cycle, percent of cells in G0/G1 phase with IGF-I (20 ng/mL) plus EM164 (20 μg/mL); 50% without EM164 [2] | MCF-7 cell cycle, percent of cells in S phase with IGF-I (20 ng/mL) plus EM164 (20 μg/mL); 41% without EM164 [2] | percent inhibition of IGF-I-stimulated growth in serum-free medium, MTT assay, A 375 (melanoma) [2] | percent inhibition of IGF-I-stimulated growth in serum-free medium, MTT assay, A431 (epidermoid) [2] | percent inhibition of IGF-I-stimulated growth in serum-free medium, MTT assay, Calu-6 [2] | percent inhibition of IGF-I-stimulated growth in serum-free medium, MTT assay, Colo 205 (colon) [2] | percent inhibition of IGF-I-stimulated growth in serum-free medium, MTT assay, HT-29 [2] | percent inhibition of IGF-I-stimulated growth in serum-free medium, MTT assay, SK-Mel-37 [2] | percent inhibition of IGF-I-stimulated growth in serum-free medium, MTT assay, SK-N-SH (neuroblastoma) [2] | percent displacement of pre-bound biotinylated IGF-I [3] | absorbance (cell ELISA signal) (absorbance units) [4] | percent displacement of pre-bound biotinylated IGF-I [5] | Kd [6]
B1 | 0.3 nM | – | – | – | – | – | – | – | – | – | – | – | – | –
B2 | – | 77% | 9% | 90% | 85% | 85% | 50% | 60% | 85% | 85% | 50% | 0.88 | 90% | 0.1 nM
